What was measured:
His-B23.1-ΔN (human) = His-B23.1-ΔN (human) (UniProt P06748); test: cross-linking; 0.1% glutaraldehyde, 10 min, room temperature, 20 mM Hepes-NaOH pH 7.9, 50 mM NaCl; SDS-PAGE, CBB staining; increased protein concentration (3.0 and 4.5 µM; lanes 5 and 6 at 4.5 µM)
GST-B23.1-CRD (human) = test: GST pull-down; conditions: total RNA, 300 mM NaCl wash; Sucrose gradient 15-40%, 5 µg protein with 10 µg 293T total RNA (buffer not given in the material); GST pull-down 2 µg protein, 5 µg total RNA, wash 300 mM …
GST-B23.1-CR (human) = test: GST pull-down; conditions: total RNA, 300 mM NaCl wash; Sucrose gradient 15-40%, 5 µg protein with 10 µg 293T total RNA (buffer not given in the material); GST pull-down 2 µg protein, 5 µg total RNA, wash 300 mM …
GST-B23.1-CR = molecular target: T1, GST-B23.1-CR (human, UniProt P06748 189-294); test: native gel or EMSA; GST-B23.1-A (0.5 µg) mixed with increasing amounts (0.5, 1.0, 2.0, 4.0 µg) of the other GST-tagged fragment in 10 µl buffer H, 30 min, room temperature; 6% native PAGE in 0.5x TBE, CBB staining; conditions: both partners purified
T1 construct: nucleophosmin NPM1/B23, variant B23.1, human, basic IDR and CTD; amplified with the same forward primer as CR1 (which begins at 189, KAPVKK) and the T7 terminator primer; also called unphosphorylated GST-B23.1-CR; source: E. coli BL21 (DE3), purified (Glutathione sepharose, MNase-treated)

GST-B23.1-CRA = molecular target: T2, GST-B23.1-CRA (human, UniProt P06748 189-294, threonine 199 replaced with alanine (A) | threonine 219 replaced with alanine …); test: as above; conditions: both partners purified
T2 construct: nucleophosmin NPM1/B23, variant B23.1, human, B23.1-CR with threonines 199, 219, 234 and 237 replaced with alanine; source: E. coli BL21 (DE3), purified (Glutathione sepharose, MNase-treated)

GST-B23.1-CR1 = molecular target: T3, GST-B23.1-CR1 (human, UniProt P06748 189-259); test: as above; conditions: both partners purified
T3 construct: nucleophosmin NPM1/B23, variant B23.1, human, amino acids 189-259 (basic IDR); limits are printed for B23.1-CR1 in the CD experiment; also called bIDR; basic IDR; source: E. coli BL21 (DE3), purified (Glutathione sepharose, MNase-treated)

GST-B23.1-CRD = molecular target: T4, GST-B23.1-CRD (human, UniProt P06748 189-294, threonine 199 replaced with aspartic acid (D) | threonine 219 replaced with …); test: as above; conditions: both partners purified
T4 construct: nucleophosmin NPM1/B23, variant B23.1, human, B23.1-CR with threonines 199, 219, 234 and 237 replaced with aspartic acid; also called phosphomimetic mutant; source: E. coli BL21 (DE3), purified (Glutathione sepharose, MNase-treated)
T4 sequence (P06748 other isoform, or with tags, fused parts or gaps with the stated changes): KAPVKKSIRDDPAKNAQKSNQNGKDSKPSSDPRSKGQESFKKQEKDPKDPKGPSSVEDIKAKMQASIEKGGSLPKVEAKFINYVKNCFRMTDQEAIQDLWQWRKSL

T1 sequence (P06748 189-294): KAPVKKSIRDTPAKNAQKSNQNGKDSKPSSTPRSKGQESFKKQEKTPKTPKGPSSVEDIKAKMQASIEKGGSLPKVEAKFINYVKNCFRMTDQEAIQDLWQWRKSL
T2 sequence (P06748 other isoform, or with tags, fused parts or gaps with the stated changes): as the sequence (P06748 189-294) above, with T11A, T31A, T46A, T49A counted along it
T3 sequence (P06748 189-259): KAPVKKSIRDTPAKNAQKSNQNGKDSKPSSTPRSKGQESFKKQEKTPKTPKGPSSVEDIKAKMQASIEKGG

Molecule: His-B23.1-ΔN (from UniProt P06748 120-294) (domain or fragment)
- stoichiometry N (His-B23.1-ΔN (human)): 2

Molecule: 18S rRNA
- binding signal (% of GST-B23.1-CR) (GST-B23.1-CRD (human)): 25
- binding signal (% (reference)) (GST-B23.1-CR (human)): 100

Molecule: 28S rRNA
- binding signal (% of GST-B23.1-CR) (GST-B23.1-CRD (human)): 35
- binding signal (% (reference)) (GST-B23.1-CR (human)): 100

B1: GST-B23.1-A (domain or fragment, human, UniProt P06748 120-188, looked up)
chain: EEDAESEDEEEEDVKLLSISGKRSAPGGGSKVPQKKVKLAADEDDDDDDEEDDDEDDDDDDFDDEEAEE
notes: nucleophosmin NPM1/B23, variant B23.1 (longest variant), human, amino acids 120-188 (acidic IDR); The construction of pGEX2T-B23.1-A is not described in the methods; also called GST-tagged B23-A; aIDR; source: E. coli BL21 (DE3), purified (Glutathione sepharose, MNase-treated)
- binding result (GST-B23.1-CR): binds
- binding result (GST-B23.1-CRA): binds
- binding result (GST-B23.1-CR1): binds
- binding result (GST-B23.1-CRD): binds

Reference: article PMC3902904, “Intrinsically disordered regions of nucleophosmin/B23 regulate its RNA binding activity through their inter- and intra-molecular association” (Nucleic Acids Research, 2013)
